According to the DeepSol protein solubility set:

Assay: soluble on expression in E. coli; label from the status in PepcDB or PDB records

Question: Which “soluble on expression in E. coli” value does the source give for “GSMLHGLKQRLEALHHPGELEGSPQNLHQLLGVSIEQSVPQAQTMLVERHLASLTGDEARLLAALSDGSAFALLTLYSGSRFSRGEVLYRYSNAGRAAGIQCNDFIALYLNHLFAQGLVIASDFTESLRTDYELCEGDSDFRKAQAELQIHLPKLSIRRETLRISPLGRQLWTLMTTPADIEEGH” here?
Answer: soluble

Question: With “GSMPRVVPDQRSKFENEEFFRKLSRECEIKYTGFRDRPHEERQTRFQNACRDGRSEIAFVATGTNLSLQFFPASWQGEQRQTPSREYVDLEREAGKVYLKAPMILNGVCVIWKGWIDLHRLDGMGCLEFDEERAQQEDALAQQ” as the sequence, how does the “soluble on expression in E. coli” value read?
Answer: soluble

Question: Which “soluble on expression in E. coli” value does the source give for “GSNAFGRFIDKIYLNSVGWRGIRQRKTHLQMLIKQAVAHLHAKGLAVRVVDIAAGHGRYVLDALANEPAISEILLRDYSEVNVAQGQEMIAQRGMSGRVRFEQGDAFNPEELSALTPRPTLAIVSGLYELFPENEQVKNSLAGLANAIDPGGILIYTGQPWHPQLELIAGVLTSHKDGKPWVMRVRSQGEMDSLVHDAGFDKCTQRIDVWGIFTVSMAVRRDN” here?
Answer: not soluble

Question: With “GSNRSLIVTTILEEPYVLFKKSDKPLYGNDRFEGYCIDLLRELSTILGFTYEIRLVEDGKYGAQDDVNGQWNGMVRELIDHKADLAVAPLAITCVREKVIDFSKPFMTLGISILYRKGTPIDSADDLAKQTKIEYGAVEDGATMTFFKKSKISTYDKMWAFMSSRRQSVLVKSNEEGIQRVLTSDYAFLMESTTIEFVTQRNCNLTQIGGLIDSKGYGVGTPMGSPYRDKITIAICQLQEEGKLHMMKEKWWRGNGCPS” as the sequence, how does the “soluble on expression in E. coli” value read?
Answer: soluble

Question: For “GSPEFEFKQKYDYFRKKLKKPADIPNRFEMKLHRNNIFEESYRRIMSVKRPDVLKARLWIEFESEKGLDYGGVAREWFFLLSKEMFNPYYGLFEYSATDNYTLQINPNSGLCNEDHLSYFTFIGRVAGLAVFHGKLLDGFFIRPFYKMMLGKQITLNDMESVDSEYYNSLKWILENDPTELDLMFCIDEENFGQTYQVDLKPNGSEIMVTNENKREYIDLVIQWRFVNRVQKQMNAFLEGFTELLPIDLIKIFDENELELLMCGLGDVDVNDWRQHSIYKNGYCPNHPVIQWFWKAVLLMDAEKRIRLLQFVTGTSRVPMNGFAELYGSNGPQLFTIEQWGSPEKLPRAHTAFNRLDLPPYETFEDLREKLLMAVENAQGFEGVD”, which “soluble on expression in E. coli” value is on record?
Answer: soluble

Question: For “GSPGIPMVAAHAAHSQSSAEWIACLDKRPLERSSEDVDIIFTRLKGVKAFEKFHPNLLRQICLCGYYENLEKGITLFRQGDIGTNWYAVLAGSLDVKVSETSSHQDAVTICTLGIGTAFGESILDNTPRHATIVTRESSELLRIEQEDFKALWEKYRQYMAGLLAPPYGVMETGSNNDRIPDKENVPSEKILRAGKILRIAILSRAPHMIRDRKYHLKTYRQCCVGTELVDWMIQQTSCVHSRTQAVGMWQVLLEDGVLNHVDQERHFQDKYLFYRFLDDEREDAPLPTEEEKKECDEELQDTMLLLSQMGPDAHMRMILRKPPGQRTVDDLEIIYDELLHIKALSHLSTTVKRELAGVLIFESHAKGGTVLFNQGEEGTSWYIILKGSVNVVIYGKGVVCTLHEGDDFGKLALVNDAPRAASIVLREDNCHFLRVDKEDFNRILRDVEANTVRLKEHDQDVLVLEKVPAGNRAANQGNSQPQQKYTVMSGTPEKILEHFLETIRLEPSLNEATDSVLNDFVMMHCVFMPNTQLCPALVAHYHAQPSQGTEQERMDYALNNKRRVIRLVLQWAAMYGDLLQEDDVAMAFLEEFYVSVSDDARMMAAFKEQLPELEKIVKQISEDAKAPQKKHKVLLQQFNTGDERAQKRQPIRGSDEVLFKVYCIDHTYTTIRVPVAASVKEVISAVADKLGSGEGLIIVKMNSGGEKVVLKSNDVSVFTTLTINGRLFACPREQFDSLTPLPEQEGPTTGTVGTFELMSSKDLAYQMTTYDWELFNCVHELELIYHTFGRHNFKKTTANLDLFLRRFNEIQFWVVTEVCLCSQLSKRVQLLKKFIKIAAHCKEYKNLNSFFAIVMGLSNVAVSRLALTWEKLPSKFKKFYAEFESLMDPSRNHRAYRLTAAKLEPPLIPFMPLLIKDMTFTHEGNKTFIDNLVNFEKMRMIANTARTVRYYRSQPFNPDAAQANKNHQDVRSYVRQLNVIDNQRTLSQMSHRLEPRRP”, which “soluble on expression in E. coli” value is on record?
Answer: soluble

Question: For “GSPGISGGGGGIPSGRGELLVSLCYQSTTNTLTVVVLKARHLPKSDVSGLSDPYVKVNLYHAKKRISKKKTHVKKCTPNAVFNELFVFDIPCESLEEISVEFLVLDSERGSRNEVIGRLVLGATAEGSGGGHWKEICDFPRRQIAKWHMLCDG”, which “soluble on expression in E. coli” value is on record?
Answer: soluble

Question: With “GSSAVNQENERLMEEYERLASELLEWIRRTIPWLENRTPEKTMQAMQKKLEDFRDYRRKHKPPKVQEKCQLEINFNTLQTKLRISNRPAFMPSEGKMVSDIAGAWQRLEQAEKGYEEWLLNEIRRLERLEHLAEKFRQKASTHETWAYGKEQILLQKDYESASLTEVRALLRKHEAFESDLAAHQDRVEQIAAIAQELNELDYHDAVNVNDRCQKICDQWDRLGTLTQKRREALERMEKLLETIDQLHLEFAKRAAPFNNWMEGAMEDLQDMFIVHSIEEIQSLITAHEQFKATLPEADGERQSIMAIQNEVEKVIQSYNIRISSSNPYSTVTMDELRTKWDKVKQLVPIRDQSLQEELARQHANERLRRQFAAQANAIGPWIQNKMEEIARSSIQITGALEDQMNQLKQYEHNIINYKNNIDKLEGDHQLIQEALVFDNKHTNYTMEHIRVGWELLLTTIARTINEVETQILTRD” as the sequence, how does the “soluble on expression in E. coli” value read?
Answer: soluble

Question: With “GSSGSSGDKKAYFYHSSFQILNVEYTEALNSPATHEYRTLSERIEAMITDEFRGSSLKSEFIRTHVVKLRKEGTGVVADVVMKFRSSKRNNRKVMKTRIQSVLRRLSSSGNLEIAPSNEITSLTDQDT” as the sequence, how does the “soluble on expression in E. coli” value read?
Answer: soluble

Question: For “GSTAAEKPKLHYFNARGRMESTRWLLAAAGVEFEEKFIKSAEDLDKLRNDGYLMFQQVPMVEIDGMKLVQTRAILNYIASKYNLYGKDIKERALIDMYIEGIADLGEMILLLPVCPPEEKDAKLALIKEKIKNRYFPAFEKVLKSHGQDYLVGNKLSRADIHLVELLYYVEELDSSLISSFPLLKALKTRISNLPTVKKFLQPGSPRKPPMDEKSLEEHRKIFRF”, which “soluble on expression in E. coli” value is on record?
Answer: soluble

Question: For “GSVLEPLKVVWAKCSGYPSYPALIIDPKMPRVPGHHNGVTIPAPPLDVLKIGEHMQTKSDEKLFLVLFFDNKRSWQWLPKSKMVPLGIDETIDKLKMMEGRNSSIRKAVRIAFDRAMNHLSRVHGE”, which “soluble on expression in E. coli” value is on record?
Answer: soluble

Question: Which “soluble on expression in E. coli” value does the source give for “GSWDWNLITGEVCWSDELYHIFGRSPQESGATYDEFLSYVHPDDRDRVDNALKKGLNGESVAGNYRIILGDGEERIVRTEAEVVFDEK” here?
Answer: not soluble

Question: With “GTDGTKPECTLCGVKYSARLSIRDHIFSKQHISKVRETVGSQLDREKD” as the sequence, how does the “soluble on expression in E. coli” value read?
Answer: soluble

Question: Which “soluble on expression in E. coli” value does the source give for “GTRKCELQGLWRNELGSNMTISALDVAGTFSGSYQTAVTATNKQILVSPLKGAQQPPGTKGQQPTFGFTVQWQFADSTTVFVGQCFVDRRGKEMLEMAWLLREEVPSRKDTWKATRVGTNVFTRVK” here?
Answer: soluble

Question: With “GVWRQYASRALQELGAGKRAIHDVADLTRGSLRIAVTPTFTSYFIGPLMADFYARYPSITLQLQEMSQEKIEDMLCRDELDVGIAFAPVHSPELEAIPLLTESLALVVAQHHPLAVHEQVALSRLHDEKLVLLSAEFATREQIDHYCEKAGLHPQVVIEANSISAVLELIRRTSLSTLLPAAIATQHDGLKAISLAPPLLERTAVLLRRKNSWQTAAAKAFLHMALDKCAVVGGNESR” as the sequence, how does the “soluble on expression in E. coli” value read?
Answer: soluble

Question: For “GWAAGDYPVVTTDHLKAMIDEKRDFLLIDARTPEEYAEAHIVGAVNVPEKTFDSASAQLPADKAKLIVLYCNGIKCGKSKRVAKKVEPLGYTAIAVYNEGMPVWEERGLPIVKGAGYGRK”, which “soluble on expression in E. coli” value is on record?
Answer: not soluble

Question: With “GYKKIPKKKLKDLMVELYVADGHFANIYDPKLTDSVREAVYTNLFAKYGTTRMDYDSTLMWYGRHDLEEYIAICQSVRDELEKQRIDLDKQITLEREKKGMDMLDGSFYELDSINMLAGDSTCFYRPEMPFLNRSFIITPGTAYKEGTRLEFVTRLRGLQLRPDATMEMFLQLVCTDNTVLTVSRPVNPGINMLTTSVPDSASVSRVYGYLRGFPDSAGIMSLSPFVIDSFSLRKF” as the sequence, how does the “soluble on expression in E. coli” value read?
Answer: not soluble

Question: For “HGGEAHMVPMDKTLKEFGADVQWDDYAQLFTLIKDGAYVKVKPGAQTAIVNGQPLALQVPVVMKDNKAWVSDTFINDVFQSGLDQTFQVEKRPHPLNALTADEIKQAVEIVKASADFKPNTRFTEISLLPPDKEAVWAFALENKPVDQPRKADVIMLDGKHIIEAVVDLQNNKLLSWQPIKDAHGMVLLDDFASVQNIINNSEEFAAAVKKRGITDAKKVITTPLTVGYFDGKDGLKQDARLLKVISYLDVGDGNYWAHPIENLVAVVDLEQKKIVKIEEGPVVPVPMTARPFDGRDRVAPAVKPMQIIEPEGKNYTITGDMIHWRNWDFHLSMNSRVGPMISTVTYNDNGTKRKVMYEGSLGGMIVPYGDPDIGWYFKAYLDSGDYGMGTLTSPIARGKDAPSNAVLLNETIADYTGVPMEIPRAIAVFERYAGPEYKHQEMGQPNVSTERRELVVRWISTVGNYDYIFDWIFHENGTIGIDAGATGIEAVKGVKAKTMHDETAKDDTRYGTLIDHNIVGTTHQHIYNFRLDLDVDGENNSLVAMDPVVKPNTAGGPRTSTMQVNQYNIGNEQDAAQKFDPGTIRLLSNPNKENRMGNPVSYQIIPYAGGTHPVAKGAQFAPDEWIYHRLSFMDKQLWVTRYHPGERFPEGKYPNRSTHDTGLGQYSKDNESLDNTDAVVWMTTGTTHVARAEEWPIMPTEWVHTLLKPWNFFDETPTLGALKKDK”, which “soluble on expression in E. coli” value is on record?
Answer: soluble

Question: For HHASPRKQGKKENGPPHSHTLKGRRLVFDN, which “soluble on expression in E. coli” value is on record?
Answer: soluble

Question: For “HHMKLYIMPGACSLADHILLRWSGSSFDLQFLDHQSMKAPEYLALNPSGAVPALQVGDWVLTQNAAILNYITDIAPAERGLSGDGSLKARAEINRWIAFSNSDVHPMYWALFGGTAYLQDPQMIARSQDNARQKLRVLYQRADAHLKHHNWLANGQRSGADAYLYVTLRWAKKVGVDLSSLDALSAFFERMEADPGVQAALQAEGLI”, which “soluble on expression in E. coli” value is on record?
Answer: soluble

Question: Which “soluble on expression in E. coli” value does the source give for “HMSFSHVCQVGDPVLRGVAAPVERAQLGGPELQRLTQRLVQVMRRRRCVGLSAPQLGVPRQVLALELPEALCRECPPRQRALRQMEPFPLRVFVNPSLRVLDSRLVTFPEGCESVAGFLACVPRFQAVQISGLDPNGEQVVWQASGWAARIIQHEMDHLQGCLFIDKMDSRTFTNVYWMKVND” here?
Answer: soluble

Question: With “HMTMEQFLTSLDMIRSGCAPKFKLKTEDLDRLRVGDFNFPPSQDLMCYTKCVALMAGTVNKKGEFNAPKALAQLPHLVPPEMMEMSRKSVEACRDTHKQFKESCERVYQTAKCFSENADGQFMWP” as the sequence, how does the “soluble on expression in E. coli” value read?
Answer: soluble

Question: With “HPICEVSKVASHLEVNCDKRNLTALPPDLPKDTTILHLSENLLYTFSLATLMPYTRLTQLNLDRAELTKLQVDGTLPVLGTLDLSHNQLQSLPLLGQTLPALTVLDVSFNRLTSLPLGALRGLGELQELYLKGNELKTLPPGLLTPTPKLEKLSLANNNLTELPAGLLNGLENLDTLLLQENSLYTIPKGFFGSHLLPFAFLHGNPWLCNCEILYFRRWLQDNAENVYVWKQGVDVKAMTSNVASVQCDNSDKFPVYKYPGKGCPTLGDEGDTDLYDYYPEEDTEGDKVR” as the sequence, how does the “soluble on expression in E. coli” value read?
Answer: soluble

Question: For “HYIFPHARIKITRDSKDHTVSGNGLGIRIVGGKEIPGHSGEIGAYIAKILPGGSAEQTGKLMEGMQVLEWNGIPLTSKTYEEVQSIISQQSGEAEICVRLDLNM”, which “soluble on expression in E. coli” value is on record?
Answer: soluble
